According to the supplement of paper PMC9112550, “Optimization of the antimicrobial peptide Bac7 by deep mutational scanning” (BMC Biology, 2022):

System: Escherichia coli TOP10
Assay: shrunken log2 fold change of peptide-encoding DNA abundance (4.5 h post-induction vs induction); higher = less antimicrobial activity (less host growth inhibition)
Conditions: time post-induction: 4.5 h; library: site-saturation at positions 5, 18, 19, 20
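Also: peptides expressed intracellularly from a pBAD plasmid library in pooled LB shake-flask culture, induced with 0.3% L-arabinose, DNA abundance read by NGS, three biological replicates, DESeq2 with apeglm shrinkage.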

| Sequence | shrunken log2 fold change |
| --- | --- |
| RRIRWRPPRLPRPRPRPVDAPRP | 0.434 |
| RRIRWRPPRLPRPRPRPVDTPRP | 0.00157 |
| RRIRWRPPRLPRPRPRPVDWPRP | 2.21 |
| RRIRWRPPRLPRPRPRPVEPPRP | 0.546 |
| RRIRWRPPRLPRPRPRPVFTPRP | 0.0746 |
| RRIRWRPPRLPRPRPRPVFWPRP | 0.386 |
| RRIRWRPPRLPRPRPRPVHNPRP | -0.152 |
| RRIRWRPPRLPRPRPRPVHWPRP | 0.138 |
| RRIRWRPPRLPRPRPRPVIDPRP | 0.373 |
| RRIRWRPPRLPRPRPRPVIHPRP | 0.162 |
| RRIRWRPPRLPRPRPRPVLHPRP | -0.0358 |
| RRIRWRPPRLPRPRPRPVMCPRP | -0.0922 |
| RRIRWRPPRLPRPRPRPVMEPRP | 0.0979 |
| RRIRWRPPRLPRPRPRPVMFPRP | -0.0114 |
| RRIRWRPPRLPRPRPRPVNCPRP | 0.0456 |
| RRIRWRPPRLPRPRPRPVPAPRP | 0.532 |
| RRIRWRPPRLPRPRPRPVPSPRP | 0.058 |
| RRIRWRPPRLPRPRPRPVQSPRP | 0.0186 |
| RRIRWRPPRLPRPRPRPVSCPRP | 0.0517 |
| RRIRWRPPRLPRPRPRPVSGPRP | -0.0172 |
| RRIRWRPPRLPRPRPRPVSPPRP | 0.175 |
| RRIRWRPPRLPRPRPRPVTDPRP | 0.105 |
| RRIRWRPPRLPRPRPRPVYLPRP | -0.229 |
| RRIRWRPPRLPRPRPRPWCIPRP | -0.225 |
| RRIRWRPPRLPRPRPRPWDDPRP | -0.236 |

| Sequence | shrunken log2 fold change |
| --- | --- |
| RRIRWRPPRLPRPRPRPWFKPRP | -0.123 |
| RRIRWRPPRLPRPRPRPWGYPRP | 0.0906 |
| RRIRWRPPRLPRPRPRPWHGPRP | -0.368 |
| RRIRWRPPRLPRPRPRPWHRPRP | -0.0473 |
| RRIRWRPPRLPRPRPRPWKEPRP | 0.162 |
| RRIRWRPPRLPRPRPRPWKFPRP | 0.0588 |
| RRIRWRPPRLPRPRPRPWKHPRP | 0.0264 |
| RRIRWRPPRLPRPRPRPWKTPRP | 0.149 |
| RRIRWRPPRLPRPRPRPWLLPRP | -0.0799 |
| RRIRWRPPRLPRPRPRPWLNPRP | -0.227 |
| RRIRWRPPRLPRPRPRPWNLPRP | -0.0421 |
| RRIRWRPPRLPRPRPRPWPDPRP | 0.0849 |
| RRIRWRPPRLPRPRPRPWPHPRP | 0.204 |
| RRIRWRPPRLPRPRPRPWSIPRP | -0.46 |
| RRIRWRPPRLPRPRPRPWTCPRP | 0.0612 |
| RRIRWRPPRLPRPRPRPWTIPRP | -0.0951 |
| RRIRWRPPRLPRPRPRPWTNPRP | 0.0442 |
| RRIRWRPPRLPRPRPRPWTPPRP | 0.0119 |
| RRIRWRPPRLPRPRPRPWVDPRP | -0.119 |
| RRIRWRPPRLPRPRPRPWVYPRP | -0.384 |
| RRIRWRPPRLPRPRPRPWYIPRP | -0.172 |
| RRIRWRPPRLPRPRPRPWYPPRP | 0.0299 |
| RRIRWRPPRLPRPRPRPWYSPRP | -0.534 |
| RRIRWRPPRLPRPRPRPWYTPRP | -0.0512 |
| RRIRWRPPRLPRPRPRPYCIPRP | -0.179 |

| Sequence | shrunken log2 fold change |
| --- | --- |
| RRIRWRPPRLPRPRPRPYCRPRP | -0.295 |
| RRIRWRPPRLPRPRPRPYEGPRP | -0.874 |
| RRIRWRPPRLPRPRPRPYGIPRP | -0.00133 |
| RRIRWRPPRLPRPRPRPYHAPRP | -0.295 |
| RRIRWRPPRLPRPRPRPYKQPRP | -0.0587 |
| RRIRWRPPRLPRPRPRPYMCPRP | 0.00232 |
| RRIRWRPPRLPRPRPRPYMEPRP | -0.101 |
| RRIRWRPPRLPRPRPRPYMVPRP | -0.844 |
| RRIRWRPPRLPRPRPRPYNKPRP | -1.34 |
| RRIRWRPPRLPRPRPRPYNPPRP | -1.48 |
| RRIRWRPPRLPRPRPRPYNQPRP | -0.807 |
| RRIRWRPPRLPRPRPRPYPTPRP | -0.281 |
| RRIRWRPPRLPRPRPRPYQAPRP | -0.0526 |
| RRIRWRPPRLPRPRPRPYSRPRP | -0.0788 |
| RRIRWRPPRLPRPRPRPYTYPRP | -0.329 |
| RRIRWRPPRLPRPRPRPYVMPRP | -0.511 |
| RRIRWRPPRLPRPRPRPYVWPRP | -0.0228 |
| RRIRWRPPRLPRPRPRPYWLPRP | -0.0807 |
| RRIRWRPPRLPRPRPRPYWYPRP | -1.33 |
| RRIRWRPPRLPRPRPRPYYAPRP | -0.195 |
| RRIRYRPPRLPRPRPRPAAKPRP | 0.152 |
| RRIRYRPPRLPRPRPRPACRPRP | -0.077 |
| RRIRYRPPRLPRPRPRPACVPRP | -0.351 |
| RRIRYRPPRLPRPRPRPAGKPRP | -0.237 |
| RRIRYRPPRLPRPRPRPAGRPRP | 0.104 |

| Sequence | shrunken log2 fold change |
| --- | --- |
| RRIRYRPPRLPRPRPRPAHCPRP | 0.0564 |
| RRIRYRPPRLPRPRPRPAILPRP | -0.402 |
| RRIRYRPPRLPRPRPRPAIVPRP | -0.0768 |
| RRIRYRPPRLPRPRPRPAKQPRP | -0.168 |
| RRIRYRPPRLPRPRPRPALFPRP | -0.0533 |
| RRIRYRPPRLPRPRPRPALKPRP | 0.0554 |
| RRIRYRPPRLPRPRPRPALTPRP | -0.044 |
| RRIRYRPPRLPRPRPRPAMKPRP | -0.000923 |
| RRIRYRPPRLPRPRPRPARDPRP | 0.197 |
| RRIRYRPPRLPRPRPRPATHPRP | -0.318 |
| RRIRYRPPRLPRPRPRPAWEPRP | 1.86 |
| RRIRYRPPRLPRPRPRPAYCPRP | -0.0229 |
| RRIRYRPPRLPRPRPRPAYLPRP | -0.244 |
| RRIRYRPPRLPRPRPRPCAEPRP | -0.835 |
| RRIRYRPPRLPRPRPRPCAHPRP | -0.0966 |
| RRIRYRPPRLPRPRPRPCAQPRP | -0.00639 |
| RRIRYRPPRLPRPRPRPCCHPRP | -1.36 |
| RRIRYRPPRLPRPRPRPCCPPRP | -0.38 |
| RRIRYRPPRLPRPRPRPCFCPRP | -0.565 |
| RRIRYRPPRLPRPRPRPCFHPRP | -1.42 |
| RRIRYRPPRLPRPRPRPCHCPRP | -0.0269 |
| RRIRYRPPRLPRPRPRPCHHPRP | -0.12 |
| RRIRYRPPRLPRPRPRPCIRPRP | -0.023 |
| RRIRYRPPRLPRPRPRPCKDPRP | -1.14 |
| RRIRYRPPRLPRPRPRPCNTPRP | -0.425 |

| Sequence | shrunken log2 fold change |
| --- | --- |
| RRIRYRPPRLPRPRPRPCPPPRP | -0.839 |
| RRIRYRPPRLPRPRPRPCQPPRP | -0.354 |
| RRIRYRPPRLPRPRPRPCQVPRP | -0.116 |
| RRIRYRPPRLPRPRPRPCTKPRP | -1.15 |
| RRIRYRPPRLPRPRPRPCTVPRP | -0.0835 |
| RRIRYRPPRLPRPRPRPCVEPRP | -0.0115 |
| RRIRYRPPRLPRPRPRPCVFPRP | -0.123 |
| RRIRYRPPRLPRPRPRPCVNPRP | -0.177 |
| RRIRYRPPRLPRPRPRPCWLPRP | 0.0283 |
| RRIRYRPPRLPRPRPRPCYIPRP | -0.189 |
| RRIRYRPPRLPRPRPRPDAHPRP | -0.0156 |
| RRIRYRPPRLPRPRPRPDAYPRP | -0.599 |
| RRIRYRPPRLPRPRPRPDCDPRP | -0.124 |
| RRIRYRPPRLPRPRPRPDDQPRP | -0.0136 |
| RRIRYRPPRLPRPRPRPDDTPRP | -0.876 |
| RRIRYRPPRLPRPRPRPDDVPRP | 0.0235 |
| RRIRYRPPRLPRPRPRPDEHPRP | -0.0204 |
| RRIRYRPPRLPRPRPRPDEMPRP | 0.0412 |
| RRIRYRPPRLPRPRPRPDFKPRP | -0.261 |
| RRIRYRPPRLPRPRPRPDFLPRP | -0.542 |
| RRIRYRPPRLPRPRPRPDFPPRP | -0.48 |
| RRIRYRPPRLPRPRPRPDHFPRP | 0.00911 |
| RRIRYRPPRLPRPRPRPDKLPRP | -0.0621 |
| RRIRYRPPRLPRPRPRPDNAPRP | -0.0635 |
| RRIRYRPPRLPRPRPRPDQTPRP | 0.00902 |

| Sequence | shrunken log2 fold change |
| --- | --- |
| RRIRYRPPRLPRPRPRPDSVPRP | -0.338 |
| RRIRYRPPRLPRPRPRPDTNPRP | -0.0185 |
| RRIRYRPPRLPRPRPRPDWLPRP | -0.0748 |
| RRIRYRPPRLPRPRPRPDWSPRP | -0.522 |
| RRIRYRPPRLPRPRPRPDWTPRP | 0.0173 |
| RRIRYRPPRLPRPRPRPDYEPRP | -0.105 |
| RRIRYRPPRLPRPRPRPDYGPRP | -0.205 |
| RRIRYRPPRLPRPRPRPDYKPRP | -0.136 |
| RRIRYRPPRLPRPRPRPDYSPRP | -0.245 |
| RRIRYRPPRLPRPRPRPECNPRP | -0.0877 |
| RRIRYRPPRLPRPRPRPEDTPRP | -0.00443 |
| RRIRYRPPRLPRPRPRPEEDPRP | -0.0024 |
| RRIRYRPPRLPRPRPRPEEHPRP | 0.0203 |
| RRIRYRPPRLPRPRPRPEICPRP | 0.0682 |
| RRIRYRPPRLPRPRPRPEIGPRP | 0.066 |
| RRIRYRPPRLPRPRPRPEKDPRP | 0.0236 |
| RRIRYRPPRLPRPRPRPEKQPRP | -0.000925 |
| RRIRYRPPRLPRPRPRPELAPRP | -0.0264 |
| RRIRYRPPRLPRPRPRPELEPRP | 0.0858 |
| RRIRYRPPRLPRPRPRPELPPRP | 0.0248 |
| RRIRYRPPRLPRPRPRPEMLPRP | -0.0664 |
| RRIRYRPPRLPRPRPRPEQYPRP | -0.0207 |
| RRIRYRPPRLPRPRPRPERCPRP | -0.12 |
| RRIRYRPPRLPRPRPRPETNPRP | 0.0266 |
| RRIRYRPPRLPRPRPRPEVMPRP | 0.00902 |
